Data on two substances can be found in paper PMC9350882, “Molecular and Biochemical Differences of the Tandem and Cold-Adapted PET Hydrolases Ple628 and Ple629, Isolated From a Marine Microbial Consortium” (Frontiers in Bioengineering and Biotechnology, 2022).

Usually Km stands for the concentration of substrate that gives half-maximal velocity. In general, kcat refers to the maximal rate divided by the concentration of active sites.

The subject of this data set is CC(=O)Oc1ccc([N+](=O)[O-])cc1. Description: purified protein. As to conditions: PBS pH 7.0, 20 °C, 0.1-2.5 mM substrate. Format: biochemical, Marinobacter sp.

Consider Ple628 (Marinobacter sp.), for which the Km is 1800 µM and the turnover number (kcat) was found to be 4.498 s⁻¹.
For Ple629 (Marinobacter sp.) the same measures were 2100 µM and 4.742 s⁻¹.
